Measurements: article doi:10.1101/2023.04.09.536162

Biological target: L-threonine aldolase from Neptunomonas marine (NmLTA), wild type (Neptunomonas marine)
Experiment: crystal structure

Work on “L-threonine aldolase from Neptunomonas marine (NmLTA), wild type (enzyme)” yielded a stoichiometry N of 4.
